From US20240352111A1 (Regeneron, published 2024) come the findings set out here.

Numbering of substitutions follows the chain as printed. Read-outs that look alike come from different tables or passages of the source.

Experiment [1] addresses T1, hArtemin-MMH (human).
T1 chain: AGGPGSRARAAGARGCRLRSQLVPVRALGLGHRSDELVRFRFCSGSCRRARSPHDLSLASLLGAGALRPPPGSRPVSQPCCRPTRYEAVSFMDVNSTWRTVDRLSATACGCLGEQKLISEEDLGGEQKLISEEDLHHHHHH
Briefly: SPR Biacore T200, hArtemin-MMH captured by anti-myc mAb, mAb injected, 25 C. The method, then:
(§1) The equilibrium dissociation constant (KD) for Artemin binding to each of Artemin monoclonal antibodies (mAbs) H4H33331P, H4H33335P, H4H33336P, and H4H33349P was determined using a real-time surface plasmon resonance Biacore T200 biosensor. All binding studies were performed in 10 mM HEPES, 150 mM NaCl, 3 mM EDTA, and 0.05% v/v Surfactant Tween-20, pH 7.4 (HBS-ET) running buffer at 25° C. The Biacore CM4 sensor chip surface was first derivatized by amine coupling with anti-myc mAb to capture hArtemin-MMH, MfArtemin-MMH, or mArtemin-MMH. Different concentrations of Artemin mAbs (60-2.2 nM, 3-fold serial dilution) prepared in […] running buffer were injected over the Artemin-captured surfaces for 3 min at a flow rate of 50 μL/min and their dissociation in HBS-ET running buffer was monitored for 5 minutes. At the end of each cycle, the Artemin-captured surfaces were regenerated using a 6 sec injection of 20 mM phosphoric acid.
(§2) The association rate (kₐ) and dissociation rate (kd) were determined by fitting the real-time binding sensorgrams to a 1:1 binding model with mass transport limitation using Scrubber 2.0c curve-fitting software. Binding dissociation equilibrium constant (KD) and dissociative half-life (t½) were calculated from the kinetic rates as: KD (M)=kd/kₐ, and t_{1/2} (min)=[In2/(60*kd)].
In general terms: Surface plasmon resonance follows binding to a sensor surface in real time, without labels.

Experiment [2] addresses T2, mArtemin-MMH (mouse).
T2 chain: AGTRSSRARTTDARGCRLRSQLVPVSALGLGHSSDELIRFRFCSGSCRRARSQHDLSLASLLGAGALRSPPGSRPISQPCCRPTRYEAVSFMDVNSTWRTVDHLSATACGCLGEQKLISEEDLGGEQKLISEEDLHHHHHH
As to the kind of experiment: SPR Biacore T200, mArtemin-MMH captured by anti-myc mAb, mAb injected, 25 C. The method, then: as §1, §2

Experiment [3] concerns the target MfArtemin-MMH (cynomolgous monkey (Macaca fascicularis)). Briefly: cell-based or functional assay.
Experiment [4] has the same target. Briefly: blocking ELISA, 400 pM mfARTN.mmh binding to plate-coated hGFRa3.hFc.
Experiment [5] has as its target T2, mArtemin-MMH. As to the kind of experiment: blocking ELISA, 150 pM msARTN.mmh binding to plate-coated hGFRa3.hFc.
Experiment [6] concerns the target T1, hArtemin-MMH. As to the kind of experiment: cell-based or functional assay.
The target in experiment [7] is T2, mArtemin-MMH. Briefly: cell-based or functional assay.
Experiment [8] has as its target T1, hArtemin-MMH. As to the kind of experiment: blocking ELISA, 75 pM hARTN.mmh binding to plate-coated hGFRa3.hFc. On the technique in general: In an ELISA, binding on a coated surface is turned into a signal by an enzyme label.
Experiment [9] deals with MfArtemin-MMH (cynomolgous monkey (Macaca fascicularis)). Briefly: SPR Biacore T200, MfArtemin-MMH captured by anti-myc mAb, mAb injected, 25 C.
For experiment [10], the target named is T2, mArtemin-MMH. Briefly: blocking ELISA, antibody blocks 150 pM msARTN.mmh binding to plate-coated hGFRa3.hFc. How it is done:
(§3) Experiments were carried out using the following procedures. Plates were coated with hGFRa3.hFc at 2 μg/ml in PBS on a 96-well microtiter plate at 4° C. overnight for all three assays. […] In other microtiter plates, a constant amount of either 75 pM hARTN.mmh, 400 pM mfARTN.mmh, or 150 pM msARTN.mmh were separately bound with anti-ARTN antibodies and an irrelevant IgG4 antibody control at a serial dilution series from 0.0017 nM to 100 nM in PBS+0.5% BSA. After a one-hour incubation, the mixture solutions were transferred to microtiter plates coated with hGFRa3.hFc. After one hour of incubation at RT, the wells were washed with PBST, and plate-bound ARTN was detected with an anti-penta-His antibody conjugated with horseradish peroxidase (HRP) (Qiagen). The plates were then developed using TMB substrate solution (BD Biosciences, #555214) according to manufacturer's recommendation and absorbance at 450 nm was measured on a Victor X5 plate reader.
(§4) Binding data were analyzed using a sigmoidal dose-response model within Prism™ software (GraphPad). […] If the calculated IC50 value was below the LLOA, less than LLOA was reported. Percent blocking at 100 nM antibody was calculated based on the background-corrected binding signal observed at the highest antibody concentration tested using the formula listed below and reported for all tested antibodies: […]

For experiment [11], the target named is T3, MfArtemin-MMH (cynomolgous monkey (Macaca fascicularis)).
T3 construct: also called mfARTN.mmh; mfARTN (A108-G22).mmh
T3 chain: T1 chain with A8P, V76I
As to the kind of experiment: SPR Biacore T200, MfArtemin-MMH captured by anti-myc mAb, mAb injected, 25 C. How it is done:
as §1, §2

Experiment [12] deals with T3, MfArtemin-MMH. As to the kind of experiment: blocking ELISA, antibody blocks 400 pM mfARTN.mmh binding to plate-coated hGFRa3.hFc. How it is done: as §3, §4
Experiment [13] has as its target T1, hArtemin-MMH. As to the kind of experiment: blocking ELISA, antibody blocks 75 pM hARTN.mmh binding to plate-coated hGFRa3.hFc. How it is done: as §3, §4
In experiment [14] the target is T1, hArtemin-MMH. As to the kind of experiment: BLI (Octet HTX), mAb captured on AHC tips, artemin at 3.75 nM, 25 C. The method, then:
(§5) The entire experiment was performed at 25° C. in 10 mM HEPES, 150 mM NaCl, 3 mM EDTA, 0.02% NaN3 and 0.05% v/v Surfactant Tween-20, 1 mg/mL BSA, pH7.4 (HBS-EBT) buffer with the plate shaking at a speed of 1000 rpm. Different Artemin mAbs were first captured onto anti-human antibody (AHC) coated Octet biosensor tips (Fortebio Inc, #18-5064) by submerging the biosensor tips for 40 seconds in wells containing 2 μg/mL of Artemin mAb. […] All the Artemin and Artemin mAb samples were prepared in HBS-EBT buffer. The real-time binding response was monitored during the entire course of the experiment and the binding response at the end of every step was recorded.

Experiment [15] addresses T3, MfArtemin-MMH. Described as above. How it is done: as §5
Experiment [16] addresses T2, mArtemin-MMH. Described as above. How it is done:
as §5

In experiment [17] the target is T1, hArtemin-MMH. As to the kind of experiment: BLI (Octet HTX), mAb captured on AHC tips, artemin at 7.5 nM, 25 C. How it is done:
as §5
For orientation: BLI is a label-free optical method that tracks binding on a fibre tip over time.

The target of experiment [18] is T3, MfArtemin-MMH. The experiment is described as above. The method, then: as §5
The target in experiment [19] is T2, mArtemin-MMH. The description is as above. The method, then:
as §5

Experiment [20] deals with T1, hArtemin-MMH. As to the kind of experiment: BLI (Octet HTX), mAb captured on AHC tips, artemin at 30 nM, 25 C. The method, then: as §5
The target in experiment [21] is T3, MfArtemin-MMH. The description is as above. The method, then: as §5
Experiment [22] concerns the target T2, mArtemin-MMH. Described as above. The method, then: as §5
The target in experiment [23] is T3, MfArtemin-MMH. Briefly: cell-based or functional assay.
Experiment [24] has as its target T1, hArtemin-MMH. Briefly: BLI (Octet HTX), mAb captured on AHC tips, artemin at 15 nM, 25 C. How it is done: as §5
The target of experiment [25] is T3, MfArtemin-MMH. The description is as above. How it is done:
as §5

The target of experiment [26] is T2, mArtemin-MMH. The experiment is described as above. How it is done: as §5

For Isotype Control mAb (antibody), the 60 nM Artemin mAb Bound (RU) in [1], in [2] and in experiment [9] was 0 RU throughout. Moreover, the Max inhibition (%), SRE-luciferase reporter, 3 nM mfArtemin in experiment [3] is 10%. Also, the figures for the % Blocking with 100 nM Ab in experiment [4], in experiment [5] and in [8] were -28%, -31% and -3%, respectively. In experiment [6], this molecule had a Max inhibition (%), SRE-luciferase reporter, 500 pM hArtemin of 9%. Also, in experiment [7], the Max inhibition (%), SRE-luciferase reporter, 1 nM mArtemin was 1%.

B1: H4H33335P (antibody, human IgG4 S228P, kappa, V domains shown)
VH: EVQLVESGGGLVQPGGSLRLSCAASGFTFSSYDMHWVRQATGKGLEWVSTIDTAGDTYYPGSVKGRFTISRENAKNSLYLQMNSLRAGDTAVYYCARDGELELQGYFDLWGRGTLVTVSS
VL: DIQMTQSPSSLSASVGDRVTITCRASQIISIYLNWYQQKPGKAPKLLIYAASSLQSGVPSRFSGSGSGTDFTLTISSLQPEDFATYYCQQSYTTPLTFGGGTKVEIKR
notes: Fully human antibody; also called Artemin mAb; anti-ARTN antibody
As a reminder, the Kd is the equilibrium constant for the complex coming apart. The term koff denotes the first-order rate constant of dissociation. Broadly, the kon is a measure of how fast the partners come together. Broadly, the t½ is the time needed for the level to fall by half in the phase considered. Broadly, the IC50 is the point on the concentration scale where inhibition reaches its midpoint. With B1, the “60 nM Artemin mAb Bound (RU)” value in experiment [1] turned out to be 4 RU; in [11] it was 3 RU; in [2] it was 3 RU. Further, binding in [1] was put at a Kd of 2.22 nM. Also, in experiment [1], the koff was determined as 0.00019 s⁻¹. The molecule further displayed a kon in [1] of 85300 M⁻¹ s⁻¹. For the same molecule, in [1], the “t½” value is 1.02 h. Also, the “% Blocking with 100 nM Ab” value in experiment [10] turned out to be 63%; in experiment [12] it was 71%; in [13] it was 65%. In addition, the IC50 in [10] is 0.0876 nM; in experiment [12], 0.233 nM; in experiment [13], 0.505 nM. For the same molecule, the “Artemin Binding Response (nm)” value in experiment [14] is 0.02 nm; in [15], 0 nm; in [16], 0.02 nm; in [17], 0.07 nm; in experiment [18], 0 nm; in experiment [19] it was 0.05 nm. For the same molecule, the “Artemin Binding Response (nm)” value in experiment [20] came out at 0.11 nm; in [21] it was 0.09 nm; in experiment [22] it was 0.08 nm; in experiment [24], 0.11 nm; in [25] it was 0.04 nm; in experiment [26] it was 0.07 nm. Moreover, the “Max inhibition (%), SRE-luciferase reporter, 500 pM hArtemin” value in experiment [6] worked out at 100%. Moreover, in experiment [23], the “Max inhibition (%), SRE-luciferase reporter, 3 nM mfArtemin” value amounted to 100%. Moreover, the “Max inhibition (%), SRE-luciferase reporter, 1 nM mArtemin” value in experiment [7] turned out to be 95%.
